Target: T1, FtsY (bacterial SRP receptor), wild type, as used in the GTPase assays (Escherichia coli, UniProt P10121 1-497)
T1 sequence (looked up): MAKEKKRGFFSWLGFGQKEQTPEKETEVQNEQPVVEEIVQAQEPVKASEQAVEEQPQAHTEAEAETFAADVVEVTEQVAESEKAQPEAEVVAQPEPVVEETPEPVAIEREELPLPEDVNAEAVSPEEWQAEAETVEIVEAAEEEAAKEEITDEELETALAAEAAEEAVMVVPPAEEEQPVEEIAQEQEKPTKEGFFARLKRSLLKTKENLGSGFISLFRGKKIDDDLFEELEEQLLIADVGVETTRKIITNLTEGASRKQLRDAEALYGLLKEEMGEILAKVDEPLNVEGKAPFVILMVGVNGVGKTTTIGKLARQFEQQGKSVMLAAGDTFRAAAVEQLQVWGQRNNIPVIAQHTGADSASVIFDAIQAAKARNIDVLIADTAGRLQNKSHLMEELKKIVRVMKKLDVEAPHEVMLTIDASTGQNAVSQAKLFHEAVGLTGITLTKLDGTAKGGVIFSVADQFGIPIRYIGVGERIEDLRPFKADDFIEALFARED
Test: GTPase inhibition

B1: SRP with Ffh A144W (bound to the 4.5S SRP RNA) (natural protein, Escherichia coli, UniProt P0AGD7 1-453, looked up)
chain: MFDNLTDRLSRTLRNISGRGRLTEDNVKDTLREVRMALLEADVALPVVREFINRVKEKAVGHEVNKSLTPGQEFVKIVRNELVAAMGEENQTLNLAAQPPAVVLMAGLQGAGKTTSVGKLGKFLREKHKKKVLVVSADVYRPAWIKQLETLAEQVGVDFFPSDVGQKPVDIVNAALKEAKLKFYDVLLVDTAGRLHVDEAMMDEIKQVHASINPVETLFVVDAMTGQDAANTAKAFNEALPLTGVVLTKVDGDARGGAALSIRHITGKPIKFLGVGEKTEALEPFHPDRIASRILGMGDVLSLIEDIESKVDRAQAEKLASKLKKGDGFDLNDFLEQLRQMKNMGGMASLMGKLPGMGQIPDNVKSQMDDKVLVRMEAIINSMTMKERAKPEIIKGSRKRRIAAGCGMQVQDVNRLLKQFDDMQRMMKKMKKGGMAKMMRSMKGMMPPGFPGR
Question: How did the Ki turn out when B1 was run?
Answer: 260 nM
